According to US20220363763A1 (ABL BIO, published 2022):
Like-named read-outs stand apart in the source and are kept apart here.

What was measured:
human PD-L1-Fc protein [1] = biological target: T1, human PD-L1-Fc protein (human, UniProt Q9NZQ7 19-239); experiment: ELISA on coated human PD-L1-Fc; EC50 table has no unit, x axis Ab(nM)
T1 construct: Coated on ELISA plates; also called huPD-L1; not shown: Fc part
Method: (§1) To evaluate the antigen binding activity, the humanized antibodies were subjected to ELISA test. Briefly, microtiter plates were coated with human PD-L1-Fc protein at 0.1 μg/ml in PBS, 100 μl/well at 4° C. overnight, then blocked with 100 μl/well of 5% BSA. Five-fold dilutions of humanized antibodies starting from 10 μg/ml were added to each well and incubated for 1-2 hours at RT. The plates were washed with PBS/Tween and then incubate with […] antibody conjugated with Horse Radish Peroxidase (HRP) for 1 hour at RT. After washing, the plates were developed with TMB substrate and analyzed by spectrophotometer at OD 450-630 nm.

[2] = biological target: T2, human PD-L1 expressed on mammalian cells (human, UniProt Q9NZQ7 19-290); experiment: flow cytometry (MFI) on PDL1-CHOK1 cells; EC50 table has no unit, x axis Antibodies(nM)
T2 construct: whole, on cells; also called PDL1-CHOK1 cells; PDL1-Raji cells
Method: (§2) To evaluate the antigen binding property, the humanized antibodies were analyzed for its binding to mammalian expressed PD-L1 by FACS. Briefly, PDL1-CHOK1 cells were firstly incubated with 5-fold serious diluted humanized antibodies starting at 2 μg/ml at RT for 1 hour. After wash by FACS buffer (PBS with 2% FBS), the alexa 488-anti-human IgG antibody was added to each well and incubated at RT for 1 hour. The MFI of Alexa 488 was evaluated by FACSAriaIII.

[3] = biological target: T2, human PD-L1 expressed on mammalian cells; experiment: FACS receptor blocking on PDL1-CHOK1 cells, competitor Bio-PD1 (30 µg/ml)
Method: To evaluate the blocking effect of humanized antibodies on human PD-L1 expressed on mammalian cells to bind to its receptor PD-1, the FACS-based receptor blocking assay was employed. Briefly, PDL1-CHOK1 cells were firstly incubated with 3-fold serious diluted HL1210-3 mouse mAb starting at 20 μg/ml at RT for 1 hour. After wash by FACS buffer (PBS with 2% FBS), the biotin-labeled huPD-1 were added to each well and incubated at RT for 1 hour. Then, the Streptavidin-PE was added to each well for 0.5 hour post twice wash with FACS buffer. The mean florescence intensity (MFI) of PE was evaluated by FACSAriaIII.

[4] = biological target: T2, human PD-L1 expressed on mammalian cells; experiment: flow cytometry (MFI) on PDL1-CHOK1 cells; EC50 table has no unit, x axis Antibodies(nM); remark: listed apart in the source
Method: as §2

[5] = biological target: T3, human PD-L1-his taq protein (human, UniProt Q9NZQ7 19-239, limits assumed); experiment: SPR Biacore T200, antibody captured, PD-L1-his injected
T3 construct: also called recombinant PD-L1 protein; recombinant human PD-L1; not shown: his tag
Method: The binding of the humanized antibodies to recombinant PD-L1 protein (human PD-L1-his taq) was tested by BIACORE™ using a capture method. The HL1210-3 mouse mAb were captured using anti-mouse Fc antibody coated on a CM5 chip. A series dilution of human PD-L1-his taq protein was injected over captured antibody for 3 mins at a flow rate of […]. The antigen was allowed to dissociate for 900 s. All the experiments were carried out on a Biacore T200.

human PD-L1-Fc protein [6] = biological target: T1, human PD-L1-Fc protein; experiment: ELISA on coated human PD-L1-Fc; EC50 table has no unit, x axis Ab(nM); remark: listed apart in the source
Method: as §1

human PD-L1-Fc protein [7] = biological target: T1, human PD-L1-Fc protein; experiment: as above; remark: listed apart in the source
Method: as §1

human PD-L1-Fc protein [8] = biological target: T1, human PD-L1-Fc protein; experiment: as above; remark: listed apart in the source
Method: as §1

human PD-L1-Fc protein [9] = biological target: T1, human PD-L1-Fc protein; experiment: as above; remark: listed apart in the source
Method: as §1

[10] = biological target: T4, human PD-L1 (construct not stated) (human, UniProt Q9NZQ7 19-239, limits assumed); experiment: BLI Octet Red 96, affinity ranking
T4 construct: also called B7-H1 (PD-L1); PD-L1 protein
Source text: To explore the binding kinetics of the humanized antibody, this example performed the affinity ranking by using Octet Red 96.

[11] = biological target: T2, human PD-L1 expressed on mammalian cells; experiment: flow cytometry (MFI) on PDL1-CHOK1 cells; EC50 table has no unit, x axis Antibodies(nM); remark: listed apart in the source
Method: as §2

[12] = biological target: T4, human PD-L1 (construct not stated); experiment: SPR Biacore, affinity ranking
[13] = biological target: T2, human PD-L1 expressed on mammalian cells; experiment: cell-based binding on Raji-PDL1 cells (FACS by paragraph 328; the y axis of the sheet is labelled IL2 (ng/ml)); EC50 table has no unit, x axis Concentration (nM)
Method: as §2, with “the” for “the humanized”, “PDL1-Raji” for “PDL1-CHOK1”, “µg/ml” for “μg/ml”, “Alexa” for “alexa”

T4 sequence (Q9NZQ7 19-239 limits assumed): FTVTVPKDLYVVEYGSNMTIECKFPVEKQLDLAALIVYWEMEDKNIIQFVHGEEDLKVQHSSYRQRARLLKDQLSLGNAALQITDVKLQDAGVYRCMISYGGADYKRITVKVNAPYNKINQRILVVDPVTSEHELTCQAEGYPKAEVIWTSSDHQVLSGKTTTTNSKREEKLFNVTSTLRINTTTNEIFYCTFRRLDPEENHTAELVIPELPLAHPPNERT
T3 sequence (Q9NZQ7 19-239 limits assumed): as above
T1 sequence (Q9NZQ7 19-239 limits assumed): as above
T2 sequence (Q9NZQ7 19-290): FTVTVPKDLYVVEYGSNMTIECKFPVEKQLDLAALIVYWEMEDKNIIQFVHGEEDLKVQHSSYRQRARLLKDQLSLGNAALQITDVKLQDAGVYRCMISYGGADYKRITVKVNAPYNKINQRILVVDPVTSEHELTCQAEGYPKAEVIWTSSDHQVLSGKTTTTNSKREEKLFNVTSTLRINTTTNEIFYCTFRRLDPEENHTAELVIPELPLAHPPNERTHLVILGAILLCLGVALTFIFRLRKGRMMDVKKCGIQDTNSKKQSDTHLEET

Binder | EC50 (human PD-L1-Fc protein [1]) | EC50 [2] | TOP [3] | EC50 [4] | Kd [5] | koff [5] | kon [5] | EC50 (human PD-L1-Fc protein [6]) | EC50 (human PD-L1-Fc protein [7]) | EC50 (human PD-L1-Fc protein [8]) | EC50 (human PD-L1-Fc protein [9]) | Kd [10] | koff [10] | kon [10] | EC50 [11] | Kd [12] | koff [12] | kon [12] | EC50 [13]
H1210 chimera (antibody, V domains shown, also called chimeric antibody) VH: EVKLVESGGDLVKPGGSLKLSCAASGFTFSSYDMSWVRQTPEKSLEWVATISDGGGYIYYSDSVKGRFTISRDNAKNNLYLQMSSLRSEDTALYICAREFGKRYALDYWGQGTSVTVSS VL: DIVMTQSHKFMSTSVGDRVSISCKASQDVTPAVAWYQQKPGQSPKLLIYSTSSRYTGVPDRFTGSGSGTDFTFTISSVQAEDLAVYYCQQHYTTPLTFGAGTKLELK | 0.17 nM | 0.95 nM | 87.2 | 0.95 nM | 0.264 nM | 3.27e-05 s⁻¹ | 124000 M⁻¹ s⁻¹ | 0.177 nM | 0.169 nM | 0.139 nM | 0.16 nM | 1.07 nM | 0.000173 s⁻¹ | 162000 M⁻¹ s⁻¹ | 0.95 nM | – | – | – | –
WT (parental clone of the Hu1210-41 engineering) (antibody, V domains shown, Differs from Hu1210-41 by S60R (Kabat) in the heavy chain; also called parental antibody WT; parent antibody WT) VH: EVQLVESGGGLVQPGGSLRLSCAASGFTFSSYDMSWVRQAPGKSLEWVATISDAGGYIYYRDSVKGRFTISRDNAKNSLYLQMNSLRDEDTAVYICAREFGKRYALDYWGQGTTVTVSS VL: DIQMTQSPSSLSASVGDRVTITCKASQDVTPAVAWYQQKPGKAPKLLIYSTSSRYTGVPSRFSGSGSGTDFTFTISSLQPEDIATYYCQQHYTTPLTFGQGTKLEIK | – | – | – | – | – | – | – | – | – | – | – | – | – | – | – | 2.63 nM | 0.000464 s⁻¹ | 177000 M⁻¹ s⁻¹ | 5.04 nM
Hu1210-8 (antibody, V domains shown, Hu1210 VH.1a x Vk.1a; human gamma 1 / kappa constant domains) VH: EVQLVESGGGLVKPGGSLRLSCAASGFTFSSYDMSWVRQAPGKGLEWVATISDGGGYIYYSDSVKGRFTISRDNAKNSLYLQMNSLRAEDTAVYYCAREFGKRYALDYWGQGTTVTVSS VL: DIQMTQSPSSLSASVGDRVTITCKASQDVTPAVAWYQQKPGKSPKLLIYSTSSRYTGVPSRFSGSGSGTDFTFTISSLQPEDIATYYCQQHYTTPLTFGQGTKLEIK | – | 1.23 nM | 86.3 | – | 0.767 nM | 7.17e-05 s⁻¹ | 93500 M⁻¹ s⁻¹ | 0.186 nM | – | – | – | 1.64 nM | 0.000127 s⁻¹ | 77200 M⁻¹ s⁻¹ | – | – | – | – | –
Hu1210-22 (antibody, V domains shown, Hu1210 VH.4b x Vk.1a; human gamma 1 / kappa constant domains) VH: EVQLVESGGGLVQPGGSLRLSCAASGFTFSSYDMSWVRQAPGKSLEWVATISDGGGYIYYSDSVKGRFTISRDNAKNSLYLQMNSLRDEDTAVYICAREFGKRYALDYWGQGTTVTVSS VL: DIQMTQSPSSLSASVGDRVTITCKASQDVTPAVAWYQQKPGKSPKLLIYSTSSRYTGVPSRFSGSGSGTDFTFTISSLQPEDIATYYCQQHYTTPLTFGQGTKLEIK | – | – | 85.8 | – | – | – | – | – | 0.148 nM | – | – | 2.56 nM | 0.00023 s⁻¹ | 90000 M⁻¹ s⁻¹ | 1.17 nM | – | – | – | –
